Laboratory results: article PMC2890305 (Chemical biology & drug design, 2010)
Where a SMILES comes first, the peptide text is derived from it. Bridges are numbered along the chain shown (N, C = ends). Where no end group is shown, it is not given here.

Assays:
Aminopeptidase N (APN) = molecular target: T1, Aminopeptidase N (APN) (Rattus norvegicus, UniProt P15684); experiment: Inhibition of APN aminopeptidase activity, increasing peptide concentrations; format: biochemical
T1 sequence (P15684 33-965 limits assumed): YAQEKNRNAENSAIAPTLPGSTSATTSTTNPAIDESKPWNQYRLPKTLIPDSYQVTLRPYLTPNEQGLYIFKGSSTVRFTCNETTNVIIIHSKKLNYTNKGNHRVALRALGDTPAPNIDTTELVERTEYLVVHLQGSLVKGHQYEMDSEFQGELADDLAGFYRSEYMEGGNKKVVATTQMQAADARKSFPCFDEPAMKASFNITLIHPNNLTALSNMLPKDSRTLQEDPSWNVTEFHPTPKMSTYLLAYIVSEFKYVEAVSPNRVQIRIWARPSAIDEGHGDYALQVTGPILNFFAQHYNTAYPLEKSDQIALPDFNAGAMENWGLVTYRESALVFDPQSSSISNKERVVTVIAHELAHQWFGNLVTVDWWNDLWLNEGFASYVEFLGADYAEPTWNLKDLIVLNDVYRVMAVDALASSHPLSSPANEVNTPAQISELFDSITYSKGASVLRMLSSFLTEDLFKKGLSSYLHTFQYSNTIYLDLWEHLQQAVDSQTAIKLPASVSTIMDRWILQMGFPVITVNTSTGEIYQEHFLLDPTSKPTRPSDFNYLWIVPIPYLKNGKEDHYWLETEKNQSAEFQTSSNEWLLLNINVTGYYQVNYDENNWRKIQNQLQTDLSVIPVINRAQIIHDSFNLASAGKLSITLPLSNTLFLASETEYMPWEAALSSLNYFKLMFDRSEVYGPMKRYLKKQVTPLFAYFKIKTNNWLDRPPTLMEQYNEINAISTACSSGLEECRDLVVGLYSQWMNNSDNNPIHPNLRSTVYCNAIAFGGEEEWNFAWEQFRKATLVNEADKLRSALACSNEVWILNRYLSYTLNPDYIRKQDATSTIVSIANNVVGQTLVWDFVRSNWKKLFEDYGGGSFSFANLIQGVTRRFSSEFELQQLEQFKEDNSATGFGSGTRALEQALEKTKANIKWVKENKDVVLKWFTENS

[1] = system: APN from Aeromonas proteolytica; details: ref [35]; cited from earlier work
[2] = molecular target: the molecule itself; experiment: analytical ultracentrifugation
CPNGRC = molecular target: T2, CPNGRC (disulfide 1-6 (inferred)); experiment: enzyme inhibition assay
T2 chain: CPNGRC

CNGRC = molecular target: T3, CNGRC (disulfide 1-5 (inferred)); experiment: enzyme inhibition assay
T3 chain: CNGRC

APN = molecular target: T4, APN (Rattus norvegicus, UniProt P15684); experiment: Analytical ultracentrifugation, sedimentation equilibrium; format: binding; details: 3 nM enzyme
T4 sequence (P15684 33-965 limits assumed): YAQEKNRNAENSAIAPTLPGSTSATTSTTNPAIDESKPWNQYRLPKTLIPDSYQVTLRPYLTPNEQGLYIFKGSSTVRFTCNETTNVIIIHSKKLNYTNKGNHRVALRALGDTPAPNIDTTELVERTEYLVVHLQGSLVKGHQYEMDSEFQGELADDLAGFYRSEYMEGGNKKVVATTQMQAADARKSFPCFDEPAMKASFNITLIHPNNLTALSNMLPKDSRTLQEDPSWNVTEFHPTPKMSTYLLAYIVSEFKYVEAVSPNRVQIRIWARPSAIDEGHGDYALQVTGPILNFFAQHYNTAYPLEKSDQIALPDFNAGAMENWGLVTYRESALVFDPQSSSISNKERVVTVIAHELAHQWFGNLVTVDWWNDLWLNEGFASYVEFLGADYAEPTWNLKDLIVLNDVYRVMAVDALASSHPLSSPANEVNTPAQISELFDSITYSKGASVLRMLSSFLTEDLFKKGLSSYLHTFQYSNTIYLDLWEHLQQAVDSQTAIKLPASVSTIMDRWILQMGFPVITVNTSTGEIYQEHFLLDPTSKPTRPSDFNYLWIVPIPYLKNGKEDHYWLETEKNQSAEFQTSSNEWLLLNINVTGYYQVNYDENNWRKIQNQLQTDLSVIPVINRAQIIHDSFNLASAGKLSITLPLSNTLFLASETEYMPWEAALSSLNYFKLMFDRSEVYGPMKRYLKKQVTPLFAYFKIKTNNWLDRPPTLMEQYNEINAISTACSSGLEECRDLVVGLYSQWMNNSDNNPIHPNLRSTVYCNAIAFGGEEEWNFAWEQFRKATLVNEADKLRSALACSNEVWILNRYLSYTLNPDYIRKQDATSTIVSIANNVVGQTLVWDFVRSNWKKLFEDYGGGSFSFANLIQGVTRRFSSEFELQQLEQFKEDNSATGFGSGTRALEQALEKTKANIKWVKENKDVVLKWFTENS

N=C(N)NCCC[C@@H]1NC(=O)CNC(=O)[C@H](CC(N)=O)NC(=O)[C@@H]2CCCN2C(=O)[C@@H](N)CSSC[C@@H](C(=O)O)NC1=O [CPNGRC] (H-CPNGRC-OH; disulfide 1-6)
IC50 (Aminopeptidase N (APN)): 10 µM

CC(C)C[C@H](NC(=O)[C@@H](O)[C@H](N)Cc1ccccc1)C(=O)O [bestatin]
affinity for APN from Aeromonas proteolytica [1]: slow binding nanomolar affinity

B1: Aminopeptidase N (APN/CD13) ECD (protein)
chain: YAQEKNRNAENSAIAPTLPGSTSATTSTTNPAIDESKPWNQYRLPKTLIPDSYQVTLRPYLTPNEQGLYIFKGSSTVRFTCNETTNVIIIHSKKLNYTNKGNHRVALRALGDTPAPNIDTTELVERTEYLVVHLQGSLVKGHQYEMDSEFQGELADDLAGFYRSEYMEGGNKKVVATTQMQAADARKSFPCFDEPAMKASFNITLIHPNNLTALSNMLPKDSRTLQEDPSWNVTEFHPTPKMSTYLLAYIVSEFKYVEAVSPNRVQIRIWARPSAIDEGHGDYALQVTGPILNFFAQHYNTAYPLEKSDQIALPDFNAGAMENWGLVTYRESALVFDPQSSSISNKERVVTVIAHELAHQWFGNLVTVDWWNDLWLNEGFASYVEFLGADYAEPTWNLKDLIVLNDVYRVMAVDALASSHPLSSPANEVNTPAQISELFDSITYSKGASVLRMLSSFLTEDLFKKGLSSYLHTFQYSNTIYLDLWEHLQQAVDSQTAIKLPASVSTIMDRWILQMGFPVITVNTSTGEIYQEHFLLDPTSKPTRPSDFNYLWIVPIPYLKNGKEDHYWLETEKNQSAEFQTSSNEWLLLNINVTGYYQVNYDENNWRKIQNQLQTDLSVIPVINRAQIIHDSFNLASAGKLSITLPLSNTLFLASETEYMPWEAALSSLNYFKLMFDRSEVYGPMKRYLKKQVTPLFAYFKIKTNNWLDRPPTLMEQYNEINAISTACSSGLEECRDLVVGLYSQWMNNSDNNPIHPNLRSTVYCNAIAFGGEEEWNFAWEQFRKATLVNEADKLRSALACSNEVWILNRYLSYTLNPDYIRKQDATSTIVSIANNVVGQTLVWDFVRSNWKKLFEDYGGGSFSFANLIQGVTRRFSSEFELQQLEQFKEDNSATGFGSGTRALEQALEKTKANIKWVKENKDVVLKWFTENS
Kd [2]: 1.6 µM
IC50 (CPNGRC): ~10 µM
IC50 (CNGRC): ~300 µM

B2: APN: Aminopeptidase N isolated from rat renal brush-border membranes, treated with papain to solubilize the extracellular domains (protein, UniProt P15684 33-965, looked up)
extracellular domain: YAQEKNRNAENSAIAPTLPGSTSATTSTTNPAIDESKPWNQYRLPKTLIPDSYQVTLRPYLTPNEQGLYIFKGSSTVRFTCNETTNVIIIHSKKLNYTNKGNHRVALRALGDTPAPNIDTTELVERTEYLVVHLQGSLVKGHQYEMDSEFQGELADDLAGFYRSEYMEGGNKKVVATTQMQAADARKSFPCFDEPAMKASFNITLIHPNNLTALSNMLPKDSRTLQEDPSWNVTEFHPTPKMSTYLLAYIVSEFKYVEAVSPNRVQIRIWARPSAIDEGHGDYALQVTGPILNFFAQHYNTAYPLEKSDQIALPDFNAGAMENWGLVTYRESALVFDPQSSSISNKERVVTVIAHELAHQWFGNLVTVDWWNDLWLNEGFASYVEFLGADYAEPTWNLKDLIVLNDVYRVMAVDALASSHPLSSPANEVNTPAQISELFDSITYSKGASVLRMLSSFLTEDLFKKGLSSYLHTFQYSNTIYLDLWEHLQQAVDSQTAIKLPASVSTIMDRWILQMGFPVITVNTSTGEIYQEHFLLDPTSKPTRPSDFNYLWIVPIPYLKNGKEDHYWLETEKNQSAEFQTSSNEWLLLNINVTGYYQVNYDENNWRKIQNQLQTDLSVIPVINRAQIIHDSFNLASAGKLSITLPLSNTLFLASETEYMPWEAALSSLNYFKLMFDRSEVYGPMKRYLKKQVTPLFAYFKIKTNNWLDRPPTLMEQYNEINAISTACSSGLEECRDLVVGLYSQWMNNSDNNPIHPNLRSTVYCNAIAFGGEEEWNFAWEQFRKATLVNEADKLRSALACSNEVWILNRYLSYTLNPDYIRKQDATSTIVSIANNVVGQTLVWDFVRSNWKKLFEDYGGGSFSFANLIQGVTRRFSSEFELQQLEQFKEDNSATGFGSGTRALEQALEKTKANIKWVKENKDVVLKWFTENS
modifications: extracellular domain papain-solubilized
APN in the dimeric state at assay concentration (APN): less than 0.4%
